Reference: US20140186340A1, “Methods and Compositions for Normalization of Tumor Vasculature by Inhibition of LOXL2” (GILEAD BIOLOGICS, INC., priority 2011, published 2014)

Legend:
[1] = tested on: SKOV3 ovarian carcinoma cells; experiment: SKOV3 tumor xenograft, tumor growth; format: in vivo, mice; settings: twice weekly i.p., AB0023 15 mg/kg, taxol 5 mg/kg, monitored 40 days, vs vehicle controls
Method: (§1) SKOV3 ovarian carcinoma cells were obtained from ATCC, Manassas, Va. 5×10^6 cells, suspended in 50% (v/v) Matrigel, were implanted subcutaneously in female athymic nude mice. After tumors attained a volume of 100 mm^3, the mice received twice weekly intra-peritoneal injections of vehicle, anti-LOXL2 antibody AB0023 (15 mg/kg), taxol (5 mg/kg) or a combination of taxol and AB0023. The experiment was terminated when tumors from control (vehicle-treated) animals attained an average volume of 1,000 mm^3, at which point the animals were sacrificed, tumors were removed and snap-frozen, and 5 μm thick frozen sections were prepared from the frozen tumors.
Female athymic nude mice were implanted with SKOV3 ovarian carcinoma cells which, when transplanted, form highly vascularized subcutaneous tumors. Expression of LOXL2 in these tumors was confirmed by immunohistochemistry; it was noted that most of the LOXL2 immunostaining was associated with vascular structures. When the average tumor volume of the population reached 100 mm^3, the mice were treated twice weekly with intra-peritoneal injections of the anti-LOXL2 antibody AB0023 (15 mg/kg), taxol (5 mg/kg) or a combination of AB0023 and taxol at the concentrations given above. Control mice received injection of vehicle (PBST). Tumor growth was monitored for 40 days.

SKOV3-derived tumors [2] = experiment: SKOV3 xenograft, tumor hypoxia by carbonic anhydrase IX (CA9) levels; format: in vivo, mice; settings: vs vehicle
Method: as §1
Sections were fixed with 4% paraformaldehyde and blocked using Peroxidazed 1 and Background Sniper (Biocare Medical, Concord, Calif.) before incubation with primary antibody. Anti-CA9 antibody (Abcam) was applied and Mach2 HRP-polymer (Biocare Medical) was used as secondary antibody. All sections were dehydrated through a series of ethanol dilutions and xylene, mounted using a resinous medium, and visualized using DAB chromogen.
Mice with SKOV3-derived tumors, as described in Example 4, were treated with AB0023 and/or taxol; and the effects on levels of carbonic anhydrase IX (CA9), a marker of hypoxia, were determined. […] Thus, inhibition of LOXL2 reduces vessel density and reduces hypoxia in tumors.

[3] = tested on: human umbilical vein endothelial cells (HUVEC); experiment: bFGF-induced HUVEC migration assay (transwell); format: cell-based; settings: antibody 10 μg/ml, compared to control antibody AC-1; 5 hours
Method: To determine whether LOXL2 activity contributes to bFGF-induced migration of human umbilical vein endothelial cells (HUVEC), experiments were conducted in which expression of LOXL2 was inhibited using a LOXL2-targeted shRNA, and LOXL2 activity was inhibited using an anti-LOXL2 antibody.
(§2) HUVEC were isolated from umbilical veins and cultured as described. Gospodarowicz et al. (1983) J. Cell Biol. 97:1677-1685; Kigel et al. (2008) PLoS One 3:e3278. Recombinant human bFGF was produced and purified according to Tessler et al. (1990) J. Cell. Physiol. 145:310-317. For inhibition of LOXL2 expression by shRNA, lentiviruses directing expression of a LOXL2-targeted shRNA and a control shRNA were generated and used to infect HUVEC as described. Brekhman et al. (2009) BMC Cancer 9:415. The anti-LOXL2 monoclonal antibody (AB0023) has been described. See, e.g., Rodriguez et al. (2010) J. Biol. Chem. 285:20964-20974 and United States Patent Application Publication No. 2009/0053224 (Feb. 26, 2009).
For migration assays, HUVEC were seeded in transwell culture dishes (8 μm pores, 3×10^4 cells/well) coated with fibronectin (10 μg/ml, Biological Industries) in 200 μl of M199 medium containing 20% fetal calf serum. […] After 5 hours, cells that had migrated were fixed for 20 minutes with 4% paraformaldehyde, washed three times with PBS, stained with 0.05% crystal violet for 10 minutes, photographed, and counted.

[4] = tested on: human umbilical vein endothelial cells (HUVEC); experiment: Tube formation on Matrigel by HUVEC; format: cell-based; settings: antibody 1 ug/ml, compared to control antibody AC-1; bFGF 5 ng/ml, 24 hours
Excerpt: as §2
Tube formation on Matrigel was carried out as described. Varshaysky et al. (2008) Cancer Res. 68:6922-2931. For shRNA inhibition HUVEC, infected with either shLOXL2-encoding or control lentivirus, were seeded in Matrigel-coated 48 well tissue culture plates (1.6×10^4 cells/well) and incubated with growth medium supplemented with bFGF (5 ng/ml) for 24 hours. […] Phase-contrast images were photographed at 63× magnification and bifurcations-per-field of tube structures in microscopic fields were quantified by manual counting.

[5] = tested on: bFGF-induced angiogenesis; experiment: Matrigel plug assay, vessel counting and immunohistochemistry; format: in vivo, mice
Method: To determine if inhibition of LOXL2 could modulate angiogenesis in vivo, we examined the effects of the anti-LOXL2 antibody AB0023 on bFGF-induced angiogenesis, using a Matrigel plug assay. Kessler et al. (2004) Cancer Res. 64:1008-1015; Kibbey et al. (1992) J. Natl. Cancer Inst. 84:1633-1638.
For these experiments, either AB0023, at a concentration of 30 mg/kg, or vehicle (PBS+0.01% Tween-20) were injected intraperitoneally (30 mg/kg or equivalent volume) twice weekly into athymic female Ncr:Nu/Nu mice. After one week the mice were injected subcutaneously with 250 or 500 μl Matrigel (BD Biosciences, San Jose, Calif.) supplemented with 100 ng/ml human bFGF (Peprotech, Rocky Hill, N.J.) and 40 or 60 U heparin (Sigma, St. Louis, Mo.). Matrigel plugs were harvested after 10 days, excised together with attached skin, fixed in 10% neutral buffered formalin, and embedded in paraffin. Immunohistochemical analysis was performed on 5 μm serial sections with anti-CD31, anti-CD34, and anti-NG2 antibodies. 2 step sections separated by […] were analyzed per plug. Three representative 10× microscopic fields were selected per section per step, for a total of 6 fields per plug.
Immunohistochemical analysis was performed with anti-CD34 antibody on one representative section from each plug. Three representative 10× fields were selected per section for quantitation. For all IHC analysis of plugs, the mean area of signal was determined for each treatment group using Metamorph software (Molecular Devices).

[6] = tested on: bFGF-induced angiogenesis; experiment: Matrigel plug assay, flow cytometric analysis; format: in vivo, mice; settings: plugs harvested 7 days after implantation, vs vehicle
Method: The anti-angiogenic effects of systemic AB0023 administration in the Matrigel plug assay system were also assessed using flow cytometry to assay for cells expressing CD31, and for CD45-negative cells that express the vascular endothelial growth factor receptor VEGFR2 (an angiogenic marker). Analysis was conducted according to the method described by Adini et al. (2009) J. Immunol. Meth. 342:78-81.

SKOV3-derived tumors [7] = experiment: SKOV3 xenograft, tumor vessel number by CD31 immunoreactivity; format: in vivo, mice; settings: vs vehicle-treated animals; p<0.01
Method: as §1
(§3) For assessment of perfusion, the animals were injected intravenously with Hoechst 33342 (40 mg/kg) one minute prior to sacrifice and tumor removal was performed as described by Franco et al. (2006) Cancer Res. 66:3639-3648 and Rijken et al. (2000) Int. […] Bound anti-CD31 was detected with a goat anti-rat CY3-labeled antibody (Jackson Laboratories, Bar Harbor, Me.) and bound NG2 antibodies were detected with a Cy2-labeled anti-rabbit antibody (Jackson Laboratories, Bar Harbor, Me.). The stained sections were visualized using a confocal microscope or a Leica CTR 6000 microscope, and at least five microscopic fields were analyzed in each section. For analysis of perfusion, the coincidence of CD31-staining and Hoechst dye fluorescence was assessed. […]

SKOV3-derived tumors [8] = experiment: SKOV3 xenograft, tumor perfusion by Hoechst 33342 / CD31 coincidence; format: in vivo; settings: Hoechst 33342 40 mg/kg i.v. one minute before sacrifice; vs control mice; p<0.05
Method: as §1, §3

SKOV3-derived tumors [9] = experiment: SKOV3 xenograft, pericytes by NG2 and CD31 staining; format: in vivo, mice; settings: vs vehicle
Method: as §1, §3

[10] = independent experiment, vs vehicle

Molecule | tumor growth (increase in tumor volume) [1] | effect on CA9 levels in tumors (SKOV3-derived tumors [2]; taxol 5 mg/kg twice weekly i.p.) | bFGF-induced cell migration of HUVEC [3] | tube formation on Matrigel [4] | number of blood vessels in Matrigel plugs (whole plug vessel counting) ([5]; 30 mg/kg i.p. twice weekly, athymic Ncr:Nu/Nu mice, plugs after 10 days, vs vehicle) | CD31 levels in Matrigel plug sections ([5]; 30 mg/kg i.p. twice weekly, plugs after 10 days, vs vehicle) | CD34 immunoreactivity in implanted plugs ([5]; further study, vs vehicle and control antibody AC-1) | staining for CD34 in Matrigel plugs [5, 10] | staining for pericyte marker NG2 in Matrigel plugs [5, 10] | number of CD31+ cells in plugs (flow cytometry) [6] | number of VEGFR-2+/CD45- endothelial cells in plugs (flow cytometry) [6] | CD31 immunoreactivity in tumors (concentration of tumor-associated blood vessels) (SKOV3-derived tumors [7]) | reduction in CA9 levels in tumors (SKOV3-derived tumors [2]; AB0023 15 mg/kg twice weekly i.p., p<0.05) | tumor perfusion (Hoechst staining associated with CD31-positive vessels) (SKOV3-derived tumors [8]) | total number of NG2-expressing cells in tumors (SKOV3-derived tumors [9]) | concentration of vessel-associated pericytes in tumors (correspondence of CD31 and NG2 staining) (SKOV3-derived tumors [9]; p<0.01)
CC(=O)O[C@H]1C(=O)[C@@]2(C)[C@H]([C@H](OC(=O)c3ccccc3)[C@]3(O)C[C@H](OC(=O)[C@H](O)[C@@H](NC(=O)c4ccccc4)c4ccccc4)C(C)=C1C3(C)C)[C@]1(OC(C)=O)CO[C@@H]1C[C@@H]2O [taxol, paclitaxel, reference compound] | small, statistically insignificant inhibition | did not have a statistically significant effect |  |  |  |  |  |  |  |  |  |  |  |  |  | 
AB0023: mouse monoclonal antibody directed against LOXL2; heavy and light chain variable regions SEQ ID NO:1 and 2 (antibody, listed as Mus musculus, V domains shown) VH: MEWSRVFIFLLSVTAGVHSQVQLQQSGAELVRPGTSVKVSCKASGYAFTYYLIEWVKQRPGQGLEWIGVINPGSGGTNYNEKFKGKATLTADKSSSTAYMQLSSLTSDDSAVYFCARNWMNFDYWGQGTTLTVSS VL: MRCLAEFLGLLVLWIPGAIGDIVMTQAAPSVSVTPGESVSISCRSSKSLLHSNGNTYLYWFLQRPGQSPQFLIYRMSNLASGVPDRFSGSGSGTAFTLRISRVEAEDVGVYYCMQHLEYPYTFGGGTKLEIK | did not inhibit tumor growth |  | inhibited | inhibited | significant reduction | reduced | loss of CD34 immunoreactivity | significant reduction | significant reduction | significantly reduced | significantly reduced | statistically significant decrease | 66% | better perfusion | not significantly changed | significantly increase
